The values that follow come from doi:10.1101/2022.11.03.515106 (bioRxiv, 2022).

One assay addresses T1, GFP-DBR1 (human, UniProt Q9UK59 1-544).
T1 sequence: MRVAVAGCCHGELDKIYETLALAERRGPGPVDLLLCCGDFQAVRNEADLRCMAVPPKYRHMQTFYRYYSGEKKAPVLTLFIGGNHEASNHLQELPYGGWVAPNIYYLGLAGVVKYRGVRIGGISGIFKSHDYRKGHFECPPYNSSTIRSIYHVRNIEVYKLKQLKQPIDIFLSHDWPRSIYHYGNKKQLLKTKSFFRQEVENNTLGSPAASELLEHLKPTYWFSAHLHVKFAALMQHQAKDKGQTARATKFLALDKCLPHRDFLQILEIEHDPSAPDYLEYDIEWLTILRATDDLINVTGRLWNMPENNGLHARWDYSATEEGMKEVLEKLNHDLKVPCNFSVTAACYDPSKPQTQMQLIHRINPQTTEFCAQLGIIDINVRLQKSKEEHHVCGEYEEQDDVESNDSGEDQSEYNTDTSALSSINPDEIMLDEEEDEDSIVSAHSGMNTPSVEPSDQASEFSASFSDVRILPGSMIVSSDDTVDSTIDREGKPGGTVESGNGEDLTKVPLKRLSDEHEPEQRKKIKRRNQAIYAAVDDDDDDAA
Nature of the assay: pull-down.

The target of a further assay is T2, His-Flag-DBR1 (human, UniProt Q9UK59 1-544).
T2 sequence (looked up): T1 sequence
Nature of the assay: pull-down.

B1: TTDN1-mCherry (natural protein, human, UniProt Q8TAP9 1-179, looked up)
chain: MQRQNFRPPTPPYPGPGGGGWGSGSSFRGTPGGGGPRPPSPRDGYGSPHHTPPYGPRSRPYGSSHSPRHGGSFPGGRFGSPSPGGYPGSYSRSPAGSQQQFGYSPGQQQTHPQGSPRTSTPFGSGRVREKRMSNELENYFKPSMLEDPWAGLEPVSVVDISQQYSNTQTFTGKKGRYFC
In the case of B1, the binding result with GFP-DBR1 was “binds”.

B2: GST-TTDN1 (natural protein, human, UniProt Q8TAP9 1-179, looked up)
chain: B1 chain
As for B2, in the assay with His-Flag-DBR1, the binding result is “binds”.
